Measurements taken from patent publication US20230212319A1, “NOVEL ANTIGEN BINDING DOMAINS AND SYNTHETIC ANTIGEN RECEPTORS INCORPORATING THE SAME” (University of Southern California, priority 2020, published 2023).

Tests used:
Assay type in all cases: cell-based
RAJI cells = assay: JNG assay, co-culture with RAJI cells; details: JNG cells expressing construct, co-culture with Raji
Procedure, shortened: (§1)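 Jurkat NFAT-GFP (JNG) cells stably transduced with SARs by lentivirus, with drug selection where the construct carried a resistance gene, then co-cultured with target cells at E:T ~1:2 for ~4–18 h. % GFP-positive cells measured by FACS against parental JNG; +/- to 5+ correspond to ~5–50% GFP-positive.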

RS;411 = assay: JNG assay, co-culture with RS;411 cells; details: co-culture with RS411
Procedure, shortened: as §1

Nalm6 cells = assay: JNG assay, co-culture with Nalm6 cells; details: co-culture with Nalm6
Procedure, shortened: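 Values are semi-quantitative grades of GFP induction, each step approximating 10% more GFP+ cells (5+ ≈50%) above parental reporter cells, measured by FACS after SAR-transduced JNG cells were cultured with targets at ~1:2 E:T for ~4–18 h.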

RAJI-CD19-KO cells = assay: JNG assay, co-culture with RAJI-CD19-KO cells; details: co-culture with Raji-CD19-KO
Procedure, shortened: as §1

L363 cells = assay: JNG assay, co-culture with L363 cells; details: co-culture with L363
Procedure, shortened: as §1

LNCaP cells = assay: JNG assay, co-culture with LNCaP cells; details: LNCaP cells, only in the presence of SAR-adaptor PSMA-USC76-chVH-G4S-ULBP2-S3 (SEQ ID NO: 23114)
Method: Cellular supernatant is collected and assayed for the induction of cytokines (e.g., IL2).
JNG (Jurkat cells expressing EGFP under an NFAT promoter) were infected with lentiviral vectors encoding different single chain and multi-chain SARs by spinfection in the presence of 8 µg/ml of Polybrene® (Sigma, Catalog no. H9268). The Jurkat-NFAT-GFP cells are engineered in such a way that the IL-2 promoter, which carries NFAT binding sites, is cloned upstream of the GFP gene. These cells have been used to study signaling via TCR and CAR. The different SARs were stably expressed in Jurkat NFAT-GFP cells by lentiviral mediated gene transfer, followed by selection with puromycin or blasticidin. No drug selection was used in case the construct lacked an antibiotic resistance gene. The SAR-expressing Jurkat-NFAT-GFP cells were cocultured with the target cells at E:T ratio of approximately 1:2 for approximately 4 hours to 18 hours. When the interaction between SIRs and their target antigen results in activation of the NFAT pathway, GFP expression is induced. […] GFP expression was monitored by FACS analysis. The Jurkat-NFAT-GFP (parental) cells were used as control. The structure of different constructs can be determined based on their names. For example, the construct CD8SP-CD19-hu-mROO5-1-vL-[hTCRa-C SDVP]-F-F2A-Spe-IgHSP-Apa-CD20-vHH-2HCD25-G4S-CDl9-hu-mROO5-1-vH-Mlu-[hTCRb-KACIAH]-F-P2A-PAC has the following modules from 5′ to 3′ direction: a CD8 signal peptide (CD8SP), the CD19 targeting hu-mROO5-1 vL fragment (CD19-hu-mROO5-1), Xho1 cloning site, human TCRa constant chain containing CSDVP mutations (hTCRa-CSDVP), Furine cleavage site (F), F2A ribosomal skip sequence (F2A), SpeI site, human IgH signal peptide (IgHSP), Apa I restriction enzyme site, camelid CD20-2HCD25-VHH module targeting CD20, BamHI restriction enzyme site, Glycinex4-serine linker (G4S), BstI restriction enzyme site, CD19-hu-mROO5-1-vH fragment targeting CD19, Mlu I restriction enzyme site, human TCRb constant chain containing KACIAH mutations ([hTCRb-KACIAH]), Furine cleavage site (F), P2A ribosomal skip sequence and Puromycin resistance gene (PAC). The sequence of the other constructs in the table can be similarly determined from their names and by referring to the different Tables of this disclosure that provide the names and SEQ ID NO of the different modules. Alternatively, the composition and modular architecture of the different SAR constructs can be determined from their sequences by bioinformatics tools, including using nucleic acid and amino acids homology searches. A SAR is considered positive in the assay in case the SAR expressing Jurkat-NFAT-GFP cells show greater % GFP positive cells when cultured with the target cell line as compared to parental Jurkat-NFAT-GFP cells. The signs +/-, +, 2+ etc. after the name of the cell lines indicate the relative degree of positivity on the Jurkat-NFAT-GFP assay as measured by the % GFP positive cells after culture of the SAR expressing Jurkat-NFAT-GFP cells with that cell line above the % GFP cells observed in parental Jurkat NFAT-GFP cells serving as controls. In general, the number +/-, +, 2+, 3+, 4+, 5+ refer to approximately 5%, 10%, 20%, 30%, 40% and 50% GFP positive cells. The % of GFP induction in the above assay is dependent not only the relative strength of the SAR but also, among other factors, on the relative level of expression of the SAR in the JNG cells and the relative level of expression of the target antigen in the target cell line. To control for the difference in gene transduction efficiency of the different SAR constructs, the experiment was conducted with JNG cells transduced with SAR constructs co-expressing a drug resistance gene (e.g., puromycin or PAC) followed by drug selection to generate a stable population of SAR-expressing cells. […]

Molecule | NFAT-GFP ASSAY: Raji (RAJI cells) | NFAT-GFP ASSAY: RS411 (RS;411) | NFAT-GFP ASSAY: Nalm6 (Nalm6 cells) | NFAT-GFP ASSAY: Raji-CD19-KO (RAJI-CD19-KO cells) | NFAT-GFP ASSAY: L363 (L363 cells) | GFP induction (LNCaP cells)
22140 (protein) MALPVTALLLPLALLLHAARPACEVQLLESGGGLIQPGGSLRLSCAASGFTFSSHAMTWVRQAPGKGLEWVSAISGSGDYTHYADSVKGRFTISRDNSKNTVYLQMNSLRAEDSAVYYCAKDEDGGSLLGHRGQGTLVTVSSGTGGGGSGGGGSGGGGSEFDIQMTQSPSSLSASVGDRVTITCKASDHINNWLAWYQQKPGQAPKLLIYGATTLETGVPSRFSGSGSGTDYTLTISSLQPEDFATYYCQQSWNTPWTFGQGTKLEIKRLEGQPKANPTVTLFPPSSEELQANKATLVCLISDFYPGAVTVAWKADGSPVKAGVETTKPSKQSNNKYAASSYLSLTPEQWKSHRSYSCQVTHEGSTVEKTVAPTECSGRADCGFTSESYQQGVLSATILYEILLGKATLYAVLVSALVLMAMVKRKDSRGRAKRSGSGATNFSLLKQAGDVEENPGPTSATMDWIWRILFLVGAATGAHSGPQVQLQESGGGLAQAGGSLRLSCAASGRTFSMGWFRQAPGKEREFVAAITYSGGSPYYASSVRGRFTISRDNAKNTVYLQMNSLKPEDTAVYYCAANPTYGSDWNAENWGQGTQVTVSSGSGGGGSGGGGSGGGGSFEQVQLQQPGAELVKPGASVKMSCKASGYAFSSYWINWMKQKPGQGLEWIGQIYPGDGDTNYNGKFKGRATLTADTSSSTAYMQLSSLTSEDSAVYFCARSITTVVGCAMDYWGQGTSVTVSSTRASTKGPSVFPLAPSSKSTSGGTAALGCLVKDYFPEPVTVSWNSGALTSGVHTFPAVLQSSGLYSLSSVVTVPSSSLGTQTYICNVNHKPSNTKVDKRVEPKSCIPEDTFFPSPESSCDVKLVEKSFETDTNLNFQNLSVIGFRILLLKVAGFNLLMTLRLWSSRAKRSGSGVKQTLNFDLLKLAGDVESNPGPSRGHMTEYKPTVRLATRDDVPRAVRTLAAAFADYPATRHTVDPDRHIERVTELQELFLTRVGLDIGKVWVADDGAAVAVWTTPESVEAGAVFAEIGPRMAELSGSRLAAQQQMEGLLAPHRPKEPAWFLATVGVSPDHQGKGLGSAVVLPGVEAAERAGVPAFLETSAPRNLPFYERLGFTVTADVEVPEGPRTWCMTRKPGA | 5+ (refer to approximately 5%, 10%, 20%, 30%, 40% and 50% GFP positive cells) | 4+ (refer to approximately 5%, 10%, 20%, 30%, 40% and 50% GFP positive cells) | 5+ (refer to approximately 5%, 10%, 20%, 30%, 40% and 50% GFP positive cells) | 4+ (refer to approximately 5%, 10%, 20%, 30%, 40% and 50% GFP positive cells) | 2+ (refer to approximately 5%, 10%, 20%, 30%, 40% and 50% GFP positive cells) | –
SEQ ID NO: 22289: NKG2D-YA fused directly to TCRb constant chain without an Ig linker (protein) MALPVTALLLPLALLLHAARPACLFNQEVQIPLTESYCGPCPKNWICYKNNCYQFFDESKNWYESQASCMSQNASLLKVYSKEDQDLLKLVKSAHWMGLVHIPTNGSWQWEDGSILSPNLLTIIEMQKGDCALYASSFKGYIENCSTPNTYICMQRTVLEDLKNVFPPEVAVFEPSEAEISHTQKATLVCLATGFYPDHVELSWWVNGKEVHSGVCTDPQPLKEQPALNDSRYCLSSRLRVSATFWQNPRNHFRCQVQFYGLSENDEWTQDRAKPVTQIVSAEAWGRADCGFTSESYQQGVLSATILYEILLGKATLYAVLVSALVLMAMVKRKDSRGRAKRSGSGATNFSLLKQAGDVEENPGPTSMDWIWRILFLVGAATGAHSFEDLFNQEVQIPLTESYCGPCPKNWICYKNNCYQFFDESKNWYESQASCMSQNASLLKVYSKEDQDLLKLVKSAHWMGLVHIPTNGSWQWEDGSILSPNLLTIIEMQKGDCALYASSFKGFIENCSTPNTYICMQRTVTRIQNPDPAVYQLRDSKSSDKSVCLFTDFDSQTNVSQSKDSDVYITDKCVLDMRSMDFKSNSAVAWSNKSDFACANAFNNSIIPEDTFFPSPESSCDVKLVEKSFETDTNLNFQNLSVIGFRILLLKVAGFNLLMTLRLWSSRAKRSGSGVKQTLNFDLLKLAGDVESNPGPSRGHMTEYKPTVRLATRDDVPRAVRTLAAAFADYPATRHTVDPDRHIERVTELQELFLTRVGLDIGKVWVADDGAAVAVWTTPESVEAGAVFAEIGPRMAELSGSRLAAQQQMEGLLAPHRPKEPAWFLATVGVSPDHQGKGLGSAVVLPGVEAAERAGVPAFLETSAPRNLPFYERLGFTVTADVEVPEGPRTWCMTRKPGA | – | – | – | – | – | failed to show GFP induction
22129 (protein) MALPVTALLLPLALLLHAARPEVQVLESGGGLVQPGGSLRLSCAASGFTFSNFAMSWVRQAPGKGLEWVSTISGSAGTTDYADSVKGRFTISRDNSKKTLYLQMNSLRVEDTAVYYCADGRGPFFDYRGQGTLVTVSSGTGGGGSGGGGSGGGGSEFDIQMTQSPSSLSASVGDRVTITCKASDHINNWLAWYQQKPGQAPKLLIYGATTLETGVPSRFSGSGSGTDYTLTISSLQPEDFATYYCQQSWNTPWTFGQGTKLEIKRLEIQNPDPAVYQLRDSKSSDKSVCLFTDFDSQTNVSQSKDSDVYITDKCVLDMRSMDFKSNSAVAWSNKSDFACANAFNNSIIPEDTFFPSSDVPCDVKLVEKSFETDTNLNFQNLSVIGFRILLLKVAGFNLLMTLRLWSSRAKRSGSGVKQTLNFDLLKLAGDVESNPGPTSATMDWIWRILFLVGAATGAHSGPQVQLQESGGGLAQAGGSLRLSCAASGRTFSMGWFRQAPGKEREFVAAITYSGGSPYYASSVRGRFTISRDNAKNTVYLQMNSLKPEDTAVYYCAANPTYGSDWNAENWGQGTQVTVSSGSGGGGSGGGGSGGGGSFEQVQLQQPGAELVKPGASVKMSCKASGYAFSSYWINWMKQKPGQGLEWIGQIYPGDGDTNYNGKFKGRATLTADTSSSTAYMQLSSLTSEDSAVYFCARSITTVVGCAMDYWGQGTSVTVSSTREDLKNVFPPEVAVFEPSKAEIAHTQKATLVCLATGFYPDHVELSWWVNGKEVHSGVCTDPQPLKEQPALNDSRYCLSSRLRVSATFWQNPRNHFRCQVQFYGLSENDEWTQDRAKPVTQIVSAEAWGRADCGITSASYHQGVLSATILYEILLGKATLYAVLVSALVLMAMVKRKDSRGRAKRSGSGATNFSLLKQAGDVEENPGPSRGHMTEYKPTVRLATRDDVPRAVRTLAAAFADYPATRHTVDPDRHIERVTELQELFLTRVGLDIGKVWVADDGAAVAVWTTPESVEAGAVFAEIGPRMAELSGSRLAAQQQMEGLLAPHRPKEPAWFLATVGVSPDHQGKGLGSAVVLPGVEAAERAGVPAFLETSAPRNLPFYERLGFTVTADVEVPEGPRTWCMTRKPGA | Raji (+), Raji-CD19-KO (+), Nalm6 (+), L363 (+), RS411 (+) (refer to approximately 5%, 10%, 20%, 30%, 40% and 50% GFP positive cells) | Raji (+), Raji-CD19-KO (+), Nalm6 (+), L363 (+), RS411 (+) (refer to approximately 5%, 10%, 20%, 30%, 40% and 50% GFP positive cells) | Raji (+), Raji-CD19-KO (+), Nalm6 (+), L363 (+), RS411 (+) (refer to approximately 5%, 10%, 20%, 30%, 40% and 50% GFP positive cells) | Raji (+), Raji-CD19-KO (+), Nalm6 (+), L363 (+), RS411 (+) (refer to approximately 5%, 10%, 20%, 30%, 40% and 50% GFP positive cells) | Raji (+), Raji-CD19-KO (+), Nalm6 (+), L363 (+), RS411 (+) (refer to approximately 5%, 10%, 20%, 30%, 40% and 50% GFP positive cells) | –
